Test results taken from patent publication US20190054150A1 (AEQUUS BIOPHARMA, published 2019).
Square brackets hold non-standard residues; d marks the D form. Ends that are not written are not given here. Nle = CCCC[C@H](N)C(=O)O

Legend:
Assay in all cases: cell-based or functional assay
MCR3 = MCR3 (human, UniProt P41968 1-323)
MCR5 = MCR5 (human, UniProt P33032 1-325)
MCR4 = MCR4 (human, UniProt P32245 1-332)
MCR1 = MCR1 (human, UniProt Q01726 1-317)
Sequence of MCR1 (Q01726 whole entry): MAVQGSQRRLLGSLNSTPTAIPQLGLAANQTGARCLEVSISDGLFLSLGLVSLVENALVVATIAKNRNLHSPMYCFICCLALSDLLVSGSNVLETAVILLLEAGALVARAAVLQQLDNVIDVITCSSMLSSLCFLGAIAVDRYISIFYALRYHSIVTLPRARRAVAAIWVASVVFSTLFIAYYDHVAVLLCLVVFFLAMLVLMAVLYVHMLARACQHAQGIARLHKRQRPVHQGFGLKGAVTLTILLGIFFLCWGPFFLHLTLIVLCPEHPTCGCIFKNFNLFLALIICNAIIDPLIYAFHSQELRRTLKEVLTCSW

Sequence of MCR4 (P32245 whole entry): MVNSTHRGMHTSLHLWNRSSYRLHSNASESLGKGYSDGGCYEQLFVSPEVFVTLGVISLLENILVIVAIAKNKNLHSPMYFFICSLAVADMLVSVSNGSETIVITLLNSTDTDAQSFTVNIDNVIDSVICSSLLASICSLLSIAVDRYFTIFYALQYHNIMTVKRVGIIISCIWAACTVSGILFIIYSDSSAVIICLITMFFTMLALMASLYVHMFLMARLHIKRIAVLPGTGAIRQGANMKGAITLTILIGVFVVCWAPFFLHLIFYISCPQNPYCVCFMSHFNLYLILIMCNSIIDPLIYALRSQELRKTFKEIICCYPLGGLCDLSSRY
Sequence of MCR5 (P33032 whole entry): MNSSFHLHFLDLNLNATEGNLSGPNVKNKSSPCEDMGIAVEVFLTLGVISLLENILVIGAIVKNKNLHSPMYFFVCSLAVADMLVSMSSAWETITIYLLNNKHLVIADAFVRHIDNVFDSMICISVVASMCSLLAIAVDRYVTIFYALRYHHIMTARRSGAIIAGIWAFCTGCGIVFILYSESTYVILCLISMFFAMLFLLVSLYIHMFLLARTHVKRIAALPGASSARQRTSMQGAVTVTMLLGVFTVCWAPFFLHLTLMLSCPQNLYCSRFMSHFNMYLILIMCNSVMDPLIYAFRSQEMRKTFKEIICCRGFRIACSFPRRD
Sequence of MCR3 (P41968 whole entry): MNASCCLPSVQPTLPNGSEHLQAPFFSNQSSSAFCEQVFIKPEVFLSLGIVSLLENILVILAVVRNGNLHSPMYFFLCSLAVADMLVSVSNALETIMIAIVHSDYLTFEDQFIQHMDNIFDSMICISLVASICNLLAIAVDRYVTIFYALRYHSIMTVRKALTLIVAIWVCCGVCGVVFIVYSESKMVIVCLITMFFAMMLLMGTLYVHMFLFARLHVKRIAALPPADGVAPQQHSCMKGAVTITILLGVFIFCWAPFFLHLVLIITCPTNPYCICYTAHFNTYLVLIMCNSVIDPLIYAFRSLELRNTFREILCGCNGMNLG

## SYSMEHFRWGKPVGKKAAAVKVYPGGGGSGGGGSSYS[Nle]EH[dF]RWGKPV (ends and bridges not checked) [ACTH1-24-point-3-5-10aa-NDP-α-MSH]
MCR3
  MCR3 EC50 (nM); cAMP production, LANCE cAMP assay, CHO-MCR3 cells, cell pool C: 1.1 nM
MCR5
  MCR5 EC50 (nM); cAMP production, LANCE cAMP assay, CHO-MCR5 cells, cell pool C: 16 nM
MCR4
  MCR4 EC50 (nM); cAMP production, LANCE cAMP assay, CHO-MCR4 cells, cell pool C: 3.8 nM
MCR1
  MCR1 EC50 (nM); cAMP production, LANCE cAMP assay, CHO-MCR1 cells, cell pool C: 0.78 nM

## SYSMEHFRWGKPVGAARRPVKVYPGGGGSGGGGSSYS[Nle]EH[dF]RWGKPV (ends and bridges not checked) [ACTH1-24-point-1-2-10aa-NDP-α-MSH]
MCR3
  MCR3 EC50 (nM); cAMP production, LANCE cAMP assay, CHO-MCR3 cells, cell pool C: 0.58 nM
MCR5
  MCR5 EC50 (nM); cAMP production, LANCE cAMP assay, CHO-MCR5 cells, cell pool C: 13 nM
MCR4
  MCR4 EC50 (nM); cAMP production, LANCE cAMP assay, CHO-MCR4 cells, cell pool C: 2.3 nM
MCR1
  MCR1 EC50 (nM); cAMP production, LANCE cAMP assay, CHO-MCR1 cells, cell pool C: 0.45 nM

## SYSMEHFRWGKPVGKKRRPVKVYPGGGGSGGGGSSYS[Nle]EH[dF]RWGKPV (ends and bridges not checked) [ACTH1-24-linker-linker-NDP-α-MSH]
MCR3
  MCR3 EC50 (nM); cAMP production, LANCE cAMP assay, CHO-MCR3 cells, cell pool C: 0.8 nM
MCR5
  MCR5 EC50 (nM); cAMP production, LANCE cAMP assay, CHO-MCR5 cells, cell pool C: 9.6 nM
MCR4
  MCR4 EC50 (nM); cAMP production, LANCE cAMP assay, CHO-MCR4 cells, cell pool C: 1.8 nM
MCR1
  MCR1 EC50 (nM); cAMP production, LANCE cAMP assay, CHO-MCR1 cells, cell pool C: 0.39 nM

## Ac-SYS[Nle]EH[dF]RWGKPVGGGGSGGGGSSYSMEHFRWGKPVGKKRRPVKVYP [NDP-α-MSH-linker-linker-ACTH1-24]
MCR3
  MCR3 EC50 (nM); cAMP production, LANCE cAMP assay, CHO-MCR3 cells, cell pool C: 1.8 nM
MCR5
  MCR5 EC50 (nM); cAMP production, LANCE cAMP assay, CHO-MCR5 cells, cell pool C: 9.8 nM
MCR4
  MCR4 EC50 (nM); cAMP production, LANCE cAMP assay, CHO-MCR4 cells, cell pool C: 2.2 nM
MCR1
  MCR1 EC50 (nM); cAMP production, LANCE cAMP assay, CHO-MCR1 cells, cell pool C: 0.46 nM
